From patent US20250116658

Tests used:
[1] = test system: Thrb protease cleavable linker LVPRGSG, synthetic peptide fluorogenic probe
[2] = test system: GzmB protease cleavable linker IEFDSG, synthetic peptide fluorogenic probe
[3] = test system: MMP9 protease cleavable linker PLGLAG, synthetic peptide fluorogenic probe
[4] = test system: Thrb substrate peptide (candidate 1) LVSPRSG, fluorogenic peptide

| Substance | cleavage of synthetic peptide fluorogenic probe (non-corresponding pair: not cleaved) [1] | cleavage of synthetic peptide fluorogenic probe (corresponding pair: cleaved) [2] | cleavage of synthetic peptide fluorogenic probe (non-corresponding pair: not cleaved) [3] | cleavage activity in fluorogenic assay [4] | cleavage of synthetic peptide fluorogenic probe (corresponding pair: cleaved) [1] | cleavage of synthetic peptide fluorogenic probe (non-corresponding pair: not cleaved) [2] | cleavage of synthetic peptide fluorogenic probe (corresponding pair: cleaved) [3] |
| --- | --- | --- | --- | --- | --- | --- | --- |
| Granzyme B (GzmB) protease | specific cleavage was shown by only the corresponding proteases | specific cleavage was shown by only the corresponding proteases | specific cleavage was shown by only the corresponding proteases | – | – | – | – |
| Thrombin (Thrb) protease | – | – | specific cleavage was shown by only the corresponding proteases | showed higher cleavage activity than the original Thrb cleavable sequence design (LVPRGSG (SEQ ID NO: 23)) | specific cleavage was shown by only the corresponding proteases | specific cleavage was shown by only the corresponding proteases | – |
| matrix metallopeptidase 9 (MMP9) | specific cleavage was shown by only the corresponding proteases | – | – | – | – | specific cleavage was shown by only the corresponding proteases | specific cleavage was shown by only the corresponding proteases |
